These results are taken from paper PMC9849366, “Evolutionary fine-tuning of residual helix structure in disordered proteins manifests in complex structure and lifetime” (Communications Biology, 2023).

The term Kd denotes the free concentration of one partner at which half of the binding sites on the other are occupied at equilibrium, for simple one-to-one binding. Broadly, the koff is the rate constant with which the complex falls apart. High values mean a short-lived complex, low ones a long-lived complex. What is called kon is the second-order rate constant of association. A higher kon goes with faster complex formation. For orientation: stoichiometry N means a count of units in the complex or per binding partner.

Primed or numbered codes have the meaning given here. FITC′ = fluorescein isothiocyanate

The labels stand for the following.
B1: DREB2A(244-272)-WT (peptide, UniProt O82132 244-272, looked up)
chain: WPNDVDQSHLDSSDMFDVDELLRDLNGDD
notes: Expressed as GST-tagged peptide; 13C,15N-labelled for NMR, unlabelled for ITC; also called DREB2A-WT; source: E. coli BL21(DE3), purified (Glutathione Sepharose 4B, reversed phase Vydac C18)
B4: RCD1-RST(499-572) (domain or fragment, Arabidopsis thaliana, UniProt Q8RY59 499-572, looked up)
chain: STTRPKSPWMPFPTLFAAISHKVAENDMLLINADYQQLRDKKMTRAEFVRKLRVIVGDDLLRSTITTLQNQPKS
notes: also called AtRCD1-RST; αα-hub RCD1-RST; source: E. coli BL21(DE3), purified (Source 15S cation exchange, Superdex 75 SEC)

In assay [1] the target is DREB2A 244-272 (Arabidopsis thaliana) (UniProt O82132). In words: stopped-flow kinetics. Particulars: cited from earlier work.
For assay [2], the target named is B4. Briefly: ITC; 9-12 µM DREB2A(244-272) peptide in the cell, 92-100 µM RCD1-RST(499-572) in the syringe; 25 °C, 50 mM HEPES pH 7.4, 300 mM NaCl; one set of sites model; n = 3. Particulars: both partners purified. On the technique in general: Isothermal titration calorimetry measures the heat released or taken up as one component is titrated into another.
For assay [3], the target named is B4. In words: stopped-flow fluorescence spectroscopy; 0.1 µM FITC-DREB2A peptide mixed with 1-6 µM RCD1-RST(499-572) (kon); preformed complex 1:0.1 µM displaced with 5-60 µM unlabelled DREB2A(244-272) (koff); Kd from the rate constants; 10 °C, 50 mM HEPES pH 7.4, 100 mM NaCl. The note with it: both partners purified.
Assay [4] concerns the target B1. In words: ITC; 9-12 µM DREB2A(244-272) peptide in the cell, 92-100 µM RCD1-RST(499-572) in the syringe; 25 °C, 50 mM HEPES pH 7.4, 300 mM NaCl; one set of sites model; n = 3. Particulars: both partners purified.
In assay [5] the target is B4. In words: stopped-flow fluorescence spectroscopy; 0.1 µM FITC-DREB2A peptide mixed with 1-6 µM RCD1-RST(499-572) (kon); preformed complex 1:0.1 µM displaced with 5-60 µM unlabelled DREB2A(244-272) (koff); Kd from the rate constants; 10 °C, 50 mM HEPES pH 7.4, 100 mM NaCl. The note with it: both partners purified. This is another data set of the same source.
Assay [6] has as its target B4. In words: stopped-flow fluorescence spectroscopy; association kinetics; 10 °C, 50 mM HEPES pH 7.4, 50 mM NaCl. Particulars: both partners purified.
Assay [7] has as its target B4. Briefly: stopped-flow fluorescence spectroscopy; association and displacement (dissociation) kinetics; 10 °C, 50 mM HEPES pH 7.4, 500 mM NaCl. The note with it: both partners purified.
In assay [8] the target is B4. In words: stopped-flow fluorescence spectroscopy; association and displacement (dissociation) kinetics; 10 °C, 50 mM HEPES pH 7.4, 300 mM NaCl. The note with it: both partners purified.
Assay [9] concerns the target B4. In words: stopped-flow fluorescence spectroscopy; association and displacement (dissociation) kinetics; 10 °C, 50 mM HEPES pH 7.4, 800 mM NaCl. The note with it: both partners purified.
Assay [10] deals with B4. In words: stopped-flow fluorescence spectroscopy; association and displacement (dissociation) kinetics; 10 °C, 50 mM HEPES pH 7.4, 200 mM NaCl. The note with it: both partners purified.
Assay [11] deals with B4. In words: stopped-flow fluorescence spectroscopy; association kinetics; 10 °C, 50 mM HEPES pH 7.4, 150 mM NaCl. The note with it: both partners purified.

For RCD1 499-572 (from UniProt Q8RY59), the Kd in assay [1] was 0.8 nM.

For the molecule B1, in assay [2], binding was put at a Kd of 84 nM.

B2: DREB2A(244-272)-R266G (peptide, UniProt O82132 244-272, looked up)
chain: WPNDVDQSHLDSSDMFDVDELLGDLNGDD
notes: Expressed as GST-tagged peptide; 13C,15N-labelled for NMR, unlabelled for ITC; also called DREB2A-R266G; source: E. coli BL21(DE3), purified (Glutathione Sepharose 4B, reversed phase Vydac C18)
Turning to B2, the affinity in [2], expressed as Kd, was 369 nM.

B3: FITC-DREB2A(246-272) R266A (peptide, UniProt O82132 246-272, looked up)
peptide: {FITC′}-NDVDQSHLDSSDMFDVDELLADLNGDD-NH2
modifications: also: acetylation stated, site not given here
notes: also called DREB2A-R266A; DREB2A(244-272) variant R266A; source: synthetic peptide, bought: TAG Copenhagen A/S (>98% purity)
As to B3, in assay [3], the Kd was 1.5 nM, the koff is 0.383 s⁻¹ and the kon amounted to 2.46e+08 M⁻¹ s⁻¹.

With B4, in assay [4], the dH was -16.3 kcal/mol and the “stoichiometry N” value worked out at 0.84.

B5: DREB2A(244-272)-D267L (peptide, UniProt O82132 244-272, looked up)
chain: WPNDVDQSHLDSSDMFDVDELLRLLNGDD
notes: Expressed as GST-tagged peptide; 13C,15N-labelled for NMR, unlabelled for ITC; also called DREB2A-D267L; source: E. coli BL21(DE3), purified (Glutathione Sepharose 4B, reversed phase Vydac C18)
For B5, binding in assay [2] was characterised by a dissociation constant (Kd) of 66 nM.

B6: FITC-DREB2A(246-272) R266G (peptide, UniProt O82132 246-272, looked up)
peptide: {FITC′}-NDVDQSHLDSSDMFDVDELLGDLNGDD-NH2
modifications: also: acetylation stated, site not given here
notes: also called fluorescently labeled DREB2A(244-272)-R266G; DREB2A-R266G; source: synthetic peptide, bought: TAG Copenhagen A/S (>98% purity)
Consider B6, for which the kon amounted to 2.06e+08 M⁻¹ s⁻¹ in assay [5]; 4.13e+08 M⁻¹ s⁻¹ in assay [6]; 2.1e+07 M⁻¹ s⁻¹ in assay [7]; 5.59e+07 M⁻¹ s⁻¹ in assay [8]; 2.3e+08 M⁻¹ s⁻¹ in assay [3]; 1.06e+07 M⁻¹ s⁻¹ in [9]. Also, the kon in [10] was 1.2e+08 M⁻¹ s⁻¹; in assay [11], 1.75e+08 M⁻¹ s⁻¹. Also, binding in assay [3] was put at a Kd of 3 nM. Further, the koff in assay [3] amounted to 0.7 s⁻¹; in assay [9], 5.29 s⁻¹.

B7: FITC-DREB2A(246-272) WT (peptide, UniProt O82132 246-272, looked up)
peptide: {FITC′}-NDVDQSHLDSSDMFDVDELLRDLNGDD-NH2
modifications: also: acetylation stated, site not given here
notes: also called fluorescently labeled DREB2A(244-272)-WT; source: synthetic peptide, bought: TAG Copenhagen A/S (>98% purity)
For B7, the koff is 0.18 s⁻¹ in assay [5]; 0.94 s⁻¹ in assay [7]; 0.53 s⁻¹ in [8]; 1.78 s⁻¹ in [9]; 0.4 s⁻¹ in assay [10]. The kon came to 2.45e+08 M⁻¹ s⁻¹ in assay [5]; 3.35e+08 M⁻¹ s⁻¹ in [6]; 2.3e+07 M⁻¹ s⁻¹ in [7]; 3.6e+07 M⁻¹ s⁻¹ in [8]; 8e+06 M⁻¹ s⁻¹ in assay [9]; 4.5e+07 M⁻¹ s⁻¹ in assay [10]. For the same molecule, the kon in assay [11] came to 1.18e+08 M⁻¹ s⁻¹.

B8: FITC-DREB2A(246-272) D267L (peptide, UniProt O82132 246-272, looked up)
peptide: {FITC′}-NDVDQSHLDSSDMFDVDELLRLLNGDD-NH2
modifications: also: acetylation stated, site not given here
notes: also called fluorescently labeled DREB2A(244-272)-D267L; DREB2A-D267L; source: synthetic peptide, bought: TAG Copenhagen A/S (>98% purity)
For B8, the kon in assay [5] was determined as 1.78e+08 M⁻¹ s⁻¹; in assay [7], 4.5e+07 M⁻¹ s⁻¹; in assay [8], 8.1e+07 M⁻¹ s⁻¹; in assay [3] it was 2.35e+08 M⁻¹ s⁻¹; in [9], 2.2e+07 M⁻¹ s⁻¹; in assay [10], 1.42e+08 M⁻¹ s⁻¹. Besides, the kon in [11] was found to be 1.49e+08 M⁻¹ s⁻¹. In assay [3], this molecule returned a Kd of 0.13 nM. Moreover, the values for the koff in assay [3] and in assay [9] were 0.03 s⁻¹ and 0.223 s⁻¹, respectively.

B9: FITC-DREB2A(246-272) D267A (peptide, UniProt O82132 246-272, looked up)
peptide: {FITC′}-NDVDQSHLDSSDMFDVDELLRALNGDD-NH2
modifications: also: acetylation stated, site not given here
notes: also called DREB2A-D267A; DREB2A(244-272) variant D267A; source: synthetic peptide, bought: TAG Copenhagen A/S (>98% purity)
In assay [3], B9 gave a Kd of 0.32 nM, a koff of 0.07 s⁻¹ and an on-rate (kon) of 2.22e+08 M⁻¹ s⁻¹.
